{"source": "patent US20170101664", "proteins": {"B1": {"name": "Lyn kinase (protein)", "chain": "MGCIKSKGKDSLSDDGVDLKTQPVRNTERTIYVRDPTSNKQQRPVPESQLLPGQRFQTKDPEEQGDIVVALYPYDGIHPDDLSFKKGEKMKVLEEHGEWWKAKSLLTKKEGFIPSNYVAKLNTLETEEWFFKDITRKDAERQLLAPGNSAGAFLIRESETLKGSFSLSVRDFDPVHGDVIKHYKIRSLDNGGYYISPRITFPCISDMIKHYQKQADGLCRRLEKACISPKPQKPWDKDAWEIPRESIKLVKRLGAGQFGEVWMGYYNNSTKVAVKTLKPGTMSVQAFLEEANLMKTLQHDKLVRLYAVVTREEPIYIITEYMAKGSLLDFLKSDEGGKVLLPKLIDFSAQIAEGMAYIERKNYIHRDLRAANVLVSESLMCKIADFGLARVIEDNEYTAREGAKFPIKWTAPEAINFGCFTIKSDVWSFGILLYEIVTYGKIPYPGRTNADVMTALSQGYRMPRVENCPDELYDIMKMCWKEKAEERPTFDYLQSVLDDFYTATEGQYQQQP"}}, "molecular_target": "biosensor SEQ ID NO:47 (KbiotinkkafpaayiaeG-photo-cleavable linker-…rrrqrrkkr)", "data": [{"protein": "B1", "values": [{"measurement": "phosphorylation in the in vitro kinase assay", "result": "Lyn kinase did not phosphorylate the biosensor"}]}]}
